In patent publication US20170037111A1, “Novel peptides and combination of peptides for use in immunotherapy against ovarian cancer and other cancers” (immatics biotechnologies GmbH, priority 2015, published 2017) one finds Peptide exchange data, which are given here for 64 substances.

In this assay the target is HLA-A*02:01 (Homo sapiens, UniProt P04439, D140Y/D185E/D98H/E176V/E277Q/G131W/G231S/I119V/I121R/I166T/I218V/L300P/L318F/N151K/N90K/P208A/P217A/Q86G/Q94H/R138H/R169H/T345S). Briefly: MHC binding assay (UV-ligand exchange, β2m ELISA, peptide exchange yield). The note with it: MHC class I binding score; binding to HLA-A*02:01 ranged by peptide exchange yield (UV-ligand exchange, β2m ELISA). From the text:
Candidate peptides for T cell based therapies according to the present invention were further tested for their MHC binding capacity (affinity). The individual peptide-MHC complexes were produced by UV-ligand exchange, where a UV-sensitive peptide is cleaved upon UV-irradiation, and exchanged with the peptide of interest as analyzed. Only peptide candidates that can effectively bind and stabilize the peptide-receptive MHC molecules prevent dissociation of the MHC complexes. To determine the yield of the exchange reaction, an ELISA was performed based on the detection of the light chain (β2m) of stabilized MHC complexes. The assay was performed as generally described in Rodenko et al. (Rodenko et al., 2006).
96 well MAXISorp plates (NUNC) were coated over night with 2 ug/ml streptavidin in PBS at room temperature, washed 4× and blocked for 1h at 37° C. in 2% BSA containing blocking buffer. […] Peptide-MHC monomers of the UV-exchange reaction were diluted 100 fold in blocking buffer. Samples were incubated for 1h at 37° C., washed four times, incubated with 2 ug/ml HRP conjugated anti-β2m for 1h at 37° C., washed again and detected with TMB solution that is stopped with […]. Absorption was measured at 450 nm. Candidate peptides that show a high exchange yield (preferably higher than 50%, most preferred higher than 75%) are generally preferred for a generation and production of antibodies or fragments thereof, and/or T cell receptors or fragments thereof, as they show sufficient avidity to the MHC molecules and prevent dissociation of the MHC complexes.
(An ELISA detects its analyte on a solid surface through an enzyme-linked reagent.)
Take “147 (SLLEAVSFL; listed as Homo sapiens) [compound 147]”: the Peptide exchange result is “″+++″ (≧50% = +++)”.
Regarding “148 (ALNPEIVSV; listed as Homo sapiens) [compound 148]”, the Peptide exchange result was “″++″ (≧20% = ++)”.
As to “149 (NLLELFVQL; listed as Homo sapiens) [compound 149]”, the Peptide exchange result was “″+++″ (≧50% = +++)”.
Turning to “151 (KILQQLVTL; listed as Homo sapiens) [compound 151]”, the Peptide exchange result is on record as “″+++″ (≧50% = +++)”.
In the case of “153 (FLIANVLYL; listed as Homo sapiens) [compound 153]”, the Peptide exchange entry is listed as “″+″ (≧10% = +)”.
Under “154 (ALDDGTPAL; listed as Homo sapiens) [compound 154]” stands “″++″ (≧20% = ++)”; under “155 (RVANLHFPSV; listed as Homo sapiens) [compound 155]”, “″+++″ (≧50% = +++)”.
With “158 (KLFDVDEDGYI; listed as Homo sapiens) [compound 158]”, the Peptide exchange entry is given as “″+++″ (≧50% = +++)”.
With “159 (GLVGNPLPSV; listed as Homo sapiens) [compound 159]”, the Peptide exchange entry was “″++++″ (≧75% = ++++)”.
For the substance “160 (FLFDEEIEQI; listed as Homo sapiens) [compound 160]”, the Peptide exchange result is “″+++″ (≧50% = +++)”.
As for “161 (ALLEGVNTV; listed as Homo sapiens) [compound 161]”, the Peptide exchange result is recorded as “″+++″ (≧50% = +++)”.
Turning to “162 (YQQAQVPSV; listed as Homo sapiens) [compound 162]”, the Peptide exchange entry was “″+++″ (≧50% = +++)”.
For the substance “163 (ALDEMGDLLQL; listed as Homo sapiens) [compound 163]”, the Peptide exchange entry is recorded as “″+++″ (≧50% = +++)”.
Under “164 (ALLPQPKNLTV; listed as Homo sapiens) [compound 164]” stands “″+++″ (≧50% = +++)”; under “165 (SLLDEIRAV; listed as Homo sapiens) [compound 165]”, “″+++″ (≧50% = +++)”; under “167 (KVLEVTEEFGV; listed as Homo sapiens) [compound 167]”, “″+++″ (≧50% = +++)”.
With “168 (KILDADIQL; listed as Homo sapiens) [compound 168]”, the Peptide exchange entry is “″++++″ (≧75% = ++++)”.
Turning to “169 (NLPEYLPFV; listed as Homo sapiens) [compound 169]”, the Peptide exchange result is “″+++″ (≧50% = +++)”.
Take “170 (RLQETLSAA; listed as Homo sapiens) [compound 170]”: the Peptide exchange result is “″+++″ (≧50% = +++)”.
Under “171 (LLLPLQILL; listed as Homo sapiens) [compound 171]” stands “″+++″ (≧50% = +++)”.
With “172 (VLYSYTIITV; listed as Homo sapiens) [compound 172]”, the Peptide exchange entry is listed as “″++″ (≧20% = ++)”.
Regarding “173 (LLDSASAGLYL; listed as Homo sapiens) [compound 173]”, the Peptide exchange result is listed as “″+++″ (≧50% = +++)”.
In the case of “174 (ALAQYLITA; listed as Homo sapiens) [compound 174]”, the Peptide exchange entry is reported as “″+++″ (≧50% = +++)”.
Take “175 (YLFENISQL; listed as Homo sapiens) [compound 175]”: the Peptide exchange result is “″+++″ (≧50% = +++)”.
As for “176 (YLMEGSYNKVFL; listed as Homo sapiens) [compound 176]”, the Peptide exchange result was “″++″ (≧20% = ++)”.
For the substance “177 (YLLPEEYTSTL; listed as Homo sapiens) [compound 177]”, the Peptide exchange entry is “″++++″ (≧75% = ++++)”.
Consider “178 (ALTEIAFVV; listed as Homo sapiens) [compound 178]”, for which the Peptide exchange result is on record as “″++++″ (≧75% = ++++)”.
Consider “179 (KVLNELYTV; listed as Homo sapiens) [compound 179]”, for which the Peptide exchange result is “″+++″ (≧50% = +++)”.
“180 (FQIDPHSGLVTV; listed as Homo sapiens) [compound 180]”: the Peptide exchange entry was “″++″ (≧20% = ++)”.
Under “181 (LLWAGTAFQV; listed as Homo sapiens) [compound 181]” stands “″+++″ (≧50% = +++)”; under “182 (MLLEAPGIFL; listed as Homo sapiens) [compound 182]”, “″+++″ (≧50% = +++)”.
Under “183 (FGLDLVTEL; listed as Homo sapiens) [compound 183]” stands “″+++″ (≧50% = +++)”; under “184 (YLMDINGKMWL; listed as Homo sapiens) [compound 184]”, “″+++″ (≧50% = +++)”; under “185 (FLIDDKGYTL; listed as Homo sapiens) [compound 185]”, “″++″ (≧20% = ++)”.
Under “186 (TLFFQQNAL; listed as Homo sapiens) [compound 186]” stands “″++″ (≧20% = ++)”; under “187 (RQISIRGIVGV; listed as Homo sapiens) [compound 187]”, “″+++″ (≧50% = +++)”.
In the case of “188 (GLFPVTPEAV; listed as Homo sapiens) [compound 188]”, the Peptide exchange result is recorded as “″+++″ (≧50% = +++)”.
Under “189 (ALQRKLPYV; listed as Homo sapiens) [compound 189]” stands “″+++″ (≧50% = +++)”; under “190 (FLSSLTETI; listed as Homo sapiens) [compound 190]”, “″+++″ (≧50% = +++)”.
“192 (KMLDGASFTL; listed as Homo sapiens) [compound 192]”: the Peptide exchange entry was “″+++″ (≧50% = +++)”.
As for “193 (QLLDADGFLNV; listed as Homo sapiens) [compound 193]”, the Peptide exchange entry is reported as “″+++″ (≧50% = +++)”.
Under “194 (ALPLFVITV; listed as Homo sapiens) [compound 194]” stands “″+++″ (≧50% = +++)”.
With “195 (GLFADLLPRL; listed as Homo sapiens) [compound 195]”, the Peptide exchange result was “″+++″ (≧50% = +++)”.
Under “196 (YLYSVEIKL; listed as Homo sapiens) [compound 196]” stands “″++++″ (≧75% = ++++)”.
Under “197 (ALGPEGGRV; listed as Homo sapiens) [compound 197]” stands “″++″ (≧20% = ++)”.
Under “200 (LLFGSVQEV; listed as Homo sapiens) [compound 200]” stands “″+++″ (≧50% = +++)”.
Take “201 (RLVDYLEGI; listed as Homo sapiens) [compound 201]”: the Peptide exchange entry is recorded as “″+++″ (≧50% = +++)”.
Consider “202 (ALLDQQGSRWTL; listed as Homo sapiens) [compound 202]”, for which the Peptide exchange entry is “″+++″ (≧50% = +++)”.
As for “204 (KIAENVEEV; listed as Homo sapiens) [compound 204]”, the Peptide exchange entry is recorded as “″++″ (≧20% = ++)”.
As for “205 (SLYPGTETMGL; listed as Homo sapiens) [compound 205]”, the Peptide exchange result is listed as “″+++″ (≧50% = +++)”.
With “206 (VLQEGKLQKLAQL; listed as Homo sapiens) [compound 206]”, the Peptide exchange result is on record as “″+++″ (≧50% = +++)”.
For the substance “207 (GLTSTNAEV; listed as Homo sapiens) [compound 207]”, the Peptide exchange result is on record as “″++″ (≧20% = ++)”.
For the substance “208 (KISPVTFSV; listed as Homo sapiens) [compound 208]”, the Peptide exchange result was “″+++″ (≧50% = +++)”.
Under “209 (KLIESKHEV; listed as Homo sapiens) [compound 209]” stands “″++″ (≧20% = ++)”; under “210 (LLLNAVLTV; listed as Homo sapiens) [compound 210]”, “″++″ (≧20% = ++)”.
Under “211 (LLWPGAALL; listed as Homo sapiens) [compound 211]” stands “″++″ (≧20% = ++)”; under “212 (ALWDQDNLSV; listed as Homo sapiens) [compound 212]”, “″++″ (≧20% = ++)”; under “214 (FLLDLDPLLL; listed as Homo sapiens) [compound 214]”, “″+++″ (≧50% = +++)”.
On to “216 (NLWEDPYYL; listed as Homo sapiens) [compound 216]”, for which the Peptide exchange result is “″+++″ (≧50% = +++)”.
Turning to “217 (ALIHPVSTV; listed as Homo sapiens) [compound 217]”, the Peptide exchange result was “″++″ (≧20% = ++)”.
“218 (SALEELVNV; listed as Homo sapiens) [compound 218]”: the Peptide exchange result is given as “″++″ (≧20% = ++)”.
Under “219 (KLSDIGITV; listed as Homo sapiens) [compound 219]” stands “″+++″ (≧50% = +++)”; under “220 (LLQKFVPEI; listed as Homo sapiens) [compound 220]”, “″++″ (≧20% = ++)”.
With “221 (ALYEEGLLL; listed as Homo sapiens) [compound 221]”, the Peptide exchange entry is listed as “″++″ (≧20% = ++)”.
